Assay: yeast display, Sf9 membrane polyspecificity reagent, FACS + sequencing; frameworks hold sequencing errors
Procedure, shortened: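 Galactose induction of a Saccharomyces cerevisiae BJ5465 synthetic nanobody display library ran 36–48 hours. The cells were then stained for 1 hour at 4 °C with 10% biotinylated, detergent-solubilized Sf9 membrane reagent, pulled down on streptavidin microbeads and FACS-sorted into low and high (top ~1%) gates on expression and reagent-binding fluorescence. Labels for polyreactivity follow the gate of origin.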

QVHLVESGGGLVQAGGSLRLSCAASGSTFYYNAMGWYRLAPGKERELVASISYSGDSTYYADSVKGRFTISRVNAKNTVYLQMNSLKPEDTAVYYCNASTSFRSHLGFLYDYWGQGTQVTVSS
polyreactivity (PSR sort gate): high polyreactivity

QGQLVESGGGLVQAGGSLRLSCAASGSTLVYNDMGWYRQAPGKEREFVAAISISGTSTYADSVKGRFTISRDNAKNTVYLQMNSLKPEDTAVYWGQGTQVTVSS
polyreactivity (PSR sort gate): low polyreactivity

QVQLVESGGGLVQAGGSLRLSCAASGFIFADNTMGWYRQAPGKERELVGAISRRGGSTYYADSVKGRFTISRDNSKNTVYLQMNSLKPEDTAVYYCAARPFVKHDYWGQGTLVTVSS
polyreactivity (PSR sort gate): high polyreactivity

QVQLVESGGGLVQAGGSLRLSCAASGSTFFRYSMGWYRQAPGKEREFVAAISKRGGSTHYADSVKGRFTITRDNAKNTVYLQMNSLKPEDTAVYYCAASSFNSSYNYWGQGTQVTVSS
polyreactivity (PSR sort gate): high polyreactivity

QVQLVESGGGLVQAGGSLRLSCAASGSTFYTNAMGWYRQAPGKERELVASISSGGRTYYADSVKGRFTISRDNAKNTVYLQMNSLKPEDTAVYYCAKRAVLARGDYWGQGTQVTVSS
polyreactivity (PSR sort gate): low polyreactivity

QVQLVESGGGVVQAGGSLRLTCAASGFTFSYNAMGWYRQAPGKERQLVAAISYSGGSTYYADSVKGRFTISRDTAKNTVYLQMNSLIPEHTAVYYCAAYSYYNYPNRGVYRGYYYWGQGTQGTVSS
polyreactivity (PSR sort gate): high polyreactivity

QVQLVESGGGLVQAGGSLRLSCAASGRTLASYGMGWYRQAPGKERELVAAISSRGGTTYYADSVKGRFTISRDNAKNTVYLQMNSLKPEDTAVYYCAKPGRYWGQGTQVTVSS
polyreactivity (PSR sort gate): high polyreactivity

QVQRVESGGGLVQAGGSLRLSCAASGRIFRYYAMGWYRQAPGKERELVAAISRSSGSTYYADSVKGRFTISRDNAKNTVYLQMNSLKPEDTAVYYCATAFYSYGRYPQSYYWGQGTQVTVSS
polyreactivity (PSR sort gate): high polyreactivity

QVQLVESGGGLVQAGGSLRLSCAASGSIFRVYAMGWYRQAPGKERELVAAISKSGSSTYYADSVKGRFTISRDNAKNTVYLQMNSLKPEDTAVYYCAARRVLGEYGYWGQGTQVTVSS
polyreactivity (PSR sort gate): high polyreactivity

QVQLVESGGGLVQAGGSLRLSCASSGITFVRYAMAWYRPAPGKERELVAVISRGGITNYADSVKGRFTISRDNAKNTVYFQMNSLKPEDTGVYYCNREKRIRSSGGLYYWGQGTQVSVSS
polyreactivity (PSR sort gate): high polyreactivity

QVQLVESGAALVQAGGSLRLSCAASASTYVSYAMGWSRQAPGKEREFVAAITWRGDSTYYADSVKGRFTISRDNAKNTVYFQMNSLKPEDTAVDYCAADGRSWRYYSPYYYWGQGTQVTVSS
polyreactivity (PSR sort gate): low polyreactivity

QVQLVESGGGLVQAGGSLRLSCAASGSTFGYYAMGWYRQAPGKERELVAVITRGGSTYYADSVKGRFTISRDNAKNTVYLQLNSLKPEDTAVYYCNARVQAVHYGYWGQGTQVTVSS
polyreactivity (PSR sort gate): high polyreactivity

QVQLVESGGGLVQAGGSLRLSCAASGSIFSFYAMGWYRPAPGKERELVAAISYRGGSTYYADSVKGRFTISRDNAKNTVYIQMNSLKPVDSAVSYCAAARFPVFIQGYRMEYWGQGTQVTVSS
polyreactivity (PSR sort gate): low polyreactivity

QVQLVESGGGLVQAGGSLRLSCAASGRIFGRYAMGWYRQAPGKERELVAAISSGSSTNYADSLKGRFTISRDNAKNTVYLQMNSLKPEDTAVYYCAVVLYRHWWYDYWGQGTQVTVSS
polyreactivity (PSR sort gate): high polyreactivity

QDQLVESGGGLVQAGGSLRLSCAASGFTFVINDMGWYRQAPGKEREMVADITSGGDTYYADSVKGRFTISRDNAKNTVDLQMNSLKPEDTAVYYCAADIYPDWIYLLYGYWGQGTQVSVSS
polyreactivity (PSR sort gate): low polyreactivity

QVQLVESGGGLVQAGGSLRLSCAASGSIFNLYAMGWYRQAPGKERELVAAIRWSGGSTYYADSVKGRFTISRDNAKNTVYLKMKSMKPEDTAVYYCNAEWKSYRVPKFEYWGQGTQVTVSS
polyreactivity (PSR sort gate): low polyreactivity

QVQLVESGGGLVQAGGSLRLSCAASGFIFDKYAMGWYRQAPGKERELVAAINWSGDSTYYADSVKGRFTISRDNAKNTVYLQMNSLKPEDTAVYYCNARRPRFRYDYWGQGTQVTVSS
polyreactivity (PSR sort gate): high polyreactivity

QVQLVESGGRLVQAGGSLRLSCAASGRTFLVNDMGWYRQAPGKERELVAAINYNAGSTFYADSVKGRFTISRDIAKNTVYLQMNSLKPEDTAVYYCATDVYGYVEYDYWGQGTQVTVSS
polyreactivity (PSR sort gate): low polyreactivity

QVQLVESGGGLVQAGGRLLLSCAASGGTFRVYAMGWYIQAPGKERELVASISWSSGITYYADSVKGRFTISRDNAKNTVYLQMNSLKPEDTAFYYCAAEGHVTYGAPGRLYRMGYWGQGTQVTVSS
polyreactivity (PSR sort gate): low polyreactivity

QVQLVESGGGLVKAGGSLRFSCAASVITFVWYAMGWYRQAPGKERDLVASIDSSVSTNYADSVKGRFTISRDNEKNTVYFQMNSLKPEDTAVYYCAAYFFFGQVGGMEYWGQGTQVTVSS
polyreactivity (PSR sort gate): low polyreactivity

QVQLVESGGGLVQAGGSLRLSCAASGSIFLVNAMGWYRQAPGERKELVAAISWSSGSTYYADSVKGRFTNSRDNAKNTVYLQMNSLKPEDTAVYYCAKRSSITYRYDYWGQGTQVTVSS
polyreactivity (PSR sort gate): high polyreactivity

QVQLVESGGGLVQAGGSLRLSCAASGSTCARNSMGWYRQAPGKERELVAAISYSGGTTYYADSVKGRFTISRDNAKNTVYLQRNSLKPEDTAVSYCAKWEGHGRNPWGAGTEGDYWGQGTQVTVSS
polyreactivity (PSR sort gate): low polyreactivity

QVQLVESGGGLVQAGGSLRLSCAASGRTFYSYAMGWYRQAPGKERELVASISSSGASTYYADSVKGRFTISRDNAKNTVYLQMNSLKPEDTAVYYCNSVWRTSFITIYGFDYWGQGTQVTVSS
polyreactivity (PSR sort gate): high polyreactivity

QVQLEESGGGLVQAGGSLRLSCAASGSTFRAYAMGWYRQAPGKERELVAAITSTTDTYYADSVKGRFTISRDNAKNTVYLQMNSLKPEDTAVYYCASVWVWTYDYWGQGTQVTVSS
polyreactivity (PSR sort gate): low polyreactivity

HVQLQESGGGLVQAGVSLRLSCAASGNISYSRNMGWYRQAPGKERELVAAIDRGAITYYADSVKGRFTISRDNAKNTVYLQIYSLKPEDTAVYYCAAEYHDRWDHRYWGQGTQVTVSS
polyreactivity (PSR sort gate): high polyreactivity

QVQLVESGGGLAQAGGSLRLSCAASGRIFSVNVMGWYRQAPGKERELVAAITWSVGSTYYADSVKGRFTISRDNAKNTVYLQMNSLKPEDTAVFYCAARVPPVYGRVGGYHYWGQGTQVTVSS
polyreactivity (PSR sort gate): low polyreactivity

QVQLVESGGGLVQARGSLRLSCAASGRSFVINAMGWYRPAPGKERELVAGITSSGNTNYADSVKGRFTISRDNAKNTVYLQMNSLKPEDTAVYDCNAQVYLTWLTYWLYYPPNDYWGQGTQVTVSS
polyreactivity (PSR sort gate): low polyreactivity

QVQLVESGGGLVQAGRSLRLSCAASGITFTGYALGWSRQATGKERELVAAISKRGARTYYADSVKGRFTISRDNAKNTVYLQMNSLKPEDTAVYYCAADSTAQDIAGLYYWGQGTQVTVSS
polyreactivity (PSR sort gate): high polyreactivity

QVQLVESGGGLVQAGGSLRLSCAASGLTLTYYAMGWYRQAPGKERELVAAISSSGGSTYYADSVKGRFTISRDNAKNTVYLQMNSLKPEDAAVYYCAATRVSWTGRDDYWGQGTQVTVSS
polyreactivity (PSR sort gate): high polyreactivity

QVQLVESGGGLVQAGGSLRLSCAASGLIFSKNVMGRYRQAPGKERELVAAISQRGGSTYYADSVKGRFTISRDNAKNTVYLQMNSLKPEDTAVYYCAADNTVSHEDYWGQGTQVTVSS
polyreactivity (PSR sort gate): high polyreactivity

QVQLVESGGGLVQAGGSLRLSCAASGFTFSTYAMGWYRQAPGKERELVAAISFSGGSTYYADSVKGRFTISRDNAKNTVYLQMNSLKPEDTAVYYCNAVFGYRLPGNYWGQGTQVTVSS
polyreactivity (PSR sort gate): low polyreactivity

QVQLVESGGGLVQAGGSLRLSSAASGSTFGAYAMGWYRQAPGKERELVAVINSDGSTNYADSVKGRFTISRDNAKNTVYLQMNSLKPEDTAVYFCAKERTSRGGVPRMNYWGQGTQVTVSS
polyreactivity (PSR sort gate): low polyreactivity

QVQLVESGGGLVQAGGSLRLSCAASGGTFSFYTMVWYRQAPGKERELVAAIDSTGRTNYADSVKGRFTISRDNAKNTVYLQMNSLKPEDTAVYYCAAGPPRADYDYWGQGTQVTVSS
polyreactivity (PSR sort gate): low polyreactivity

QVQLVESGGGLVQAGGSLRLSCAASGITFPDYAMGWYRQAPGKERELVATISSSGGNTYYADSVKGRFTISRDNAKNTVYLQMNSLKPEETAVYYCATVSYYCGYDYWGQGTQVTVSS
polyreactivity (PSR sort gate): low polyreactivity

QVQLVESGGGLVQAGGSLRLSCAASGSIFEGNGRGWYREAPGKDRELVAAITFRSGSTYYADSVKGRFTISRDNAKNTVYLQMNSLKPEDTAVYYCAADEYYQVSAYDYWGQGTQVTVSS
polyreactivity (PSR sort gate): low polyreactivity

QVQLVESGGGLVQAGGSLRLSCAASGFIFQYYAMGWYRQAPGKERELVAAINRGGGTHYADSVKGRFTISRDNAKNTVYLQMNSLKPEDTAVYYCNKVYYWPGSRPSRYEYWGQGTQVTVSS
polyreactivity (PSR sort gate): low polyreactivity

QVQLVESGGGLVQAGGSLRLSCAASGLTIFVNAMGWYRQAPGKERELVATISGGGSTYYADSVKGRFTISRDNAKNTVYLQMNSLKPEDTAVYYCNADVLFYTYYTRGRFDFDYWGQGTQVTVSS
polyreactivity (PSR sort gate): low polyreactivity

QVQLQESGGGLVQAGGSLRLSCAASGTIFRPATKGWYRQAPGKECEFVASITIGTITNYADSVKGRFTISRDNAKNTVYLQMNSLKPEDTAVYYCAVYGTWEVDLYYWGQGTQVTVSS
polyreactivity (PSR sort gate): high polyreactivity

QVQLVESGGGLVQAGGSLRLSCAASGIILDHYAMGWYRQAPGKERELVAAISSGTRTNYADSVKGRFTISRDNAKNTVYLQMNSLKPEDTAVYYCAATIYRRYRSKSSITSYWGQGSQVTVSS
polyreactivity (PSR sort gate): high polyreactivity

QVQLVESGGGLVQAGGSLRLSCAASGSTFPDYAMGWYRQAPGKERELVAAISRRGVRTYYADSVKGRFTISRDNAKNTVYLQMNSLKPEDTAVYYCAAPSLLSGSDMDYWGQGTQVTVSS
polyreactivity (PSR sort gate): high polyreactivity

QVQLVESGGGLVQAGGSLRLSCAASGSTFFGYDMGWYRQAPGKERELVASINSGGSTYFADSEKGRFTISRDNPKNTVYLQMNSLKPEDTAVYYCAARPSYLYPYDRTGEYDYWGQGTQVTVSS
polyreactivity (PSR sort gate): high polyreactivity

QVQLGESGGGLVQAGGSLRLSCAASGRIFYLNVMGWYRQAPGKERELVAAITRRDVTTYADSVKGRFTISRDNAKNTVYLQMNSLKPEDTAVYYCNAVYYNWIGFDYWGQGTQVTVSS
polyreactivity (PSR sort gate): low polyreactivity

QVQLVESGGGLVQAGGSLRLSCAASGRTIGKNAMGWYRQAPGKERELVAAISWRGGSTRYADSVKGRFTISRDNAKNTVYLQMNSLKPEDTAVYYCAVRFLTYWHGSYWYDYWGQGTQVTVSS
polyreactivity (PSR sort gate): high polyreactivity
